For orientation: koff means the rate constant with which the complex falls apart. Usually kon stands for the rate constant with which the complex forms.

In assay [1] the target is Recombinant human TGF-β1 (human) (UniProt P01137). The experiment in a line: SPR, TGF-β1 coupled, rearrangement model, Kdapp. (SPR reads the build-up and loss of mass on a sensor chip optically.)
Assay [2] has the same target. As to the kind of experiment: SPR, TGF-β1 coupled, rearrangement model, rearrangement step.
The target is the same in assay [3]. The experiment in a line: SPR, TGF-β1 coupled, rearrangement model, Kdiss#1.
Assay [4] has the same target. As to the kind of experiment: SPR, TGF-β1 coupled, rearrangement model, kass#1.
For assay [5] the target is unchanged. As to the kind of experiment: SPR, TGF-β1 coupled, rearrangement model, Kd 1 (initial binding step).

Sequence of Recombinant human TGF-β1 (human) (P01137 279-390 limits assumed): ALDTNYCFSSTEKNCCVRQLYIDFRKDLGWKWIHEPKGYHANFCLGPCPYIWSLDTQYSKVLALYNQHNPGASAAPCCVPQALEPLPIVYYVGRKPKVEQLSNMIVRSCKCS

B1: untagged CtermTβRIIIED (receptor, UniProt P26342 576-782, looked up)
chain: RQLRNPSGFQGQLDGNATFNMELYNTDLFLVPSPGVFSVAENEHVYVEVSVTKADQDLGFAIQTCFLSPYSNPDRMSDYTIIENICPKDDSVKFYSSKRVHFPIPHAEVDKKRFSFLFKSVFNTSLLFLHCELTLCSRKKGSLKLPRCVTPDDACTSLDATMIWTMMQNKKTFTKPLAVVLQVDYKENVPSTKDSSPIPPPPPQIFH
With B1, in assay [1], the Kd was found to be 302 nM. Moreover, in assay [2], the kass#2 is 0.0029 s⁻¹, the kd 2 (no unit) amounted to 0.73 no unit and the kdiss#2 was 0.00217 s⁻¹. Further, in assay [3], the off-rate constant (koff) turned out to be 0.0535 s⁻¹. The kon in assay [4] came to 75000 M⁻¹ s⁻¹. Further, the Kd in assay [5] turned out to be 713 nM.

Source of the values: patent US20070154994A1.
